Experimental data published in article PMC3253924 (DNA Repair, 2011).
Read-outs that look alike come from different tables or passages of the source.

Key:
crystal structure [1] = biological target: the molecule itself; assay: crystal structure
crystal structure [2] = biological target: the molecule itself; assay: crystal structure; remark: listed apart in the source

Row | Protein | binding result (crystal structure [1]) | binding result (crystal structure [2])
1 | mouse TREX1 catalytic core (residues 1-242), wild type (enzyme, UniProt Q91XB0 1-242, looked up) MGSQTLPHGHMQTLIFLDLEATGLPSSRPEVTELCLLAVHRRALENTSISQGHPPPVPRPPRVVDKLSLCIAPGKACSPGASEITGLSKAELEVQGRQRFDDNLAILLRAFLQRQPQPCCLVAHNGDRYDFPLLQTELARLSTPSPLDGTFCVDSIAALKALEQASSPSGNGSRKSYSLGSIYTRLYWQAPTDSHTAEGDVLTLLSICQWKPQALLQWVDEHARPFSTVKPMYGTPATTGTT | binds | –
2 | mouse TREX1 catalytic core (residues 1-242), D200N mutant (enzyme, UniProt Q91XB0 1-242, looked up) MGSQTLPHGHMQTLIFLDLEATGLPSSRPEVTELCLLAVHRRALENTSISQGHPPPVPRPPRVVDKLSLCIAPGKACSPGASEITGLSKAELEVQGRQRFDDNLAILLRAFLQRQPQPCCLVAHNGDRYDFPLLQTELARLSTPSPLDGTFCVDSIAALKALEQASSPSGNGSRKSYSLGSIYTRLYWQAPTDSHTAEGNVLTLLSICQWKPQALLQWVDEHARPFSTVKPMYGTPATTGTT | – | binds
3 | mouse TREX1 catalytic core (residues 1-242), V201D mutant (enzyme, UniProt Q91XB0 1-242, looked up) MGSQTLPHGHMQTLIFLDLEATGLPSSRPEVTELCLLAVHRRALENTSISQGHPPPVPRPPRVVDKLSLCIAPGKACSPGASEITGLSKAELEVQGRQRFDDNLAILLRAFLQRQPQPCCLVAHNGDRYDFPLLQTELARLSTPSPLDGTFCVDSIAALKALEQASSPSGNGSRKSYSLGSIYTRLYWQAPTDSHTAEGDDLTLLSICQWKPQALLQWVDEHARPFSTVKPMYGTPATTGTT | – | binds
4 | mouse TREX1 catalytic core (residues 1-242), D18N mutant (enzyme, UniProt Q91XB0 1-242, looked up) MGSQTLPHGHMQTLIFLNLEATGLPSSRPEVTELCLLAVHRRALENTSISQGHPPPVPRPPRVVDKLSLCIAPGKACSPGASEITGLSKAELEVQGRQRFDDNLAILLRAFLQRQPQPCCLVAHNGDRYDFPLLQTELARLSTPSPLDGTFCVDSIAALKALEQASSPSGNGSRKSYSLGSIYTRLYWQAPTDSHTAEGDVLTLLSICQWKPQALLQWVDEHARPFSTVKPMYGTPATTGTT | – | binds
5 | mouse TREX1 catalytic core (residues 1-242), D200H mutant (enzyme, UniProt Q91XB0 1-242, looked up) MGSQTLPHGHMQTLIFLDLEATGLPSSRPEVTELCLLAVHRRALENTSISQGHPPPVPRPPRVVDKLSLCIAPGKACSPGASEITGLSKAELEVQGRQRFDDNLAILLRAFLQRQPQPCCLVAHNGDRYDFPLLQTELARLSTPSPLDGTFCVDSIAALKALEQASSPSGNGSRKSYSLGSIYTRLYWQAPTDSHTAEGHVLTLLSICQWKPQALLQWVDEHARPFSTVKPMYGTPATTGTT | – | binds
